Data taken from the supplement of paper PMC7125110.
± gives the standard error. Fewer inactive variants are shown than the library holds.

B1: glmS ribozyme (parent)
chain: AUAAAAGCGCCAGAACUACAGAAAUGUAGUUGACGAGGAGGAGGUUUAUCGAAUUUUCGGCGGAUGCCUCCAAA

Columns and labels:
Settings in all cases: with glucosamine-6-phosphate
[1] = variants of: B1; experiment: self-cleavage kobs at 40 uM GlcN6P; higher = faster cleavage; RNA array
Outline: (§1)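 On sequenced MiSeq chips, barcoded ribozyme variants were made in situ by E. coli RNA polymerase and followed at 37 °C through a hybridised Cy3 probe. Glucosamine-6-phosphate was flowed in at 40 μM to 10 mM in HEPES/KCl/Mg(OAc)2 buffer. Exponential fits to normalised per-tile medians gave kobs, and weighted Michaelis–Menten fits gave kcat and KM.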

[2] = variants of: B1; experiment: self-cleavage kobs at 10000 uM GlcN6P; higher = faster cleavage; RNA array
Outline: as §1

[3] = variants of: B1; experiment: self-cleavage kobs at 2500 uM GlcN6P; higher = faster cleavage; RNA array
Outline: as §1

[4] = variants of: B1; experiment: self-cleavage kobs at 160 uM GlcN6P; higher = faster cleavage; RNA array
Outline: as §1

[5] = variants of: B1; experiment: self-cleavage kobs at 640 uM GlcN6P; higher = faster cleavage; RNA array
Outline: as §1

Variant | self-cleavage kobs at 40 uM GlcN6P [1] [s⁻¹] | self-cleavage kobs at 10000 uM GlcN6P [2] [s⁻¹] | self-cleavage kobs at 2500 uM GlcN6P [3] [s⁻¹] | self-cleavage kobs at 160 uM GlcN6P [4] [s⁻¹] | self-cleavage kobs at 640 uM GlcN6P [5] [s⁻¹]
A12U A15U A52C | < 1e-05 | < 1e-05 | – | – | –
G40U G44A U57C C61G G66U | < 1e-05 | – | < 1e-05 | – | –
G40U C71A | 0.000671 ± 6.2e-05 | 0.0484 ± 0.0079 | 0.00906 ± 0.0019 | 0.00189 ± 0.00028 | 0.00561 ± 0.00069
C10U G29C C61A | < 1e-05 | – | – | – | –
C10U A36U U65G | < 1e-05 | – | – | – | –
G43U G60C | < 1e-05 | < 1e-05 | – | < 1e-05 | < 1e-05
G7A G43U | < 1e-05 | < 1e-05 | < 1e-05 | < 1e-05 | < 1e-05
C8G U31C A33U U46C C67A | < 1e-05 | < 1e-05 | – | – | –
G32C U57C | < 1e-05 | – | – | < 1e-05 | < 1e-05
U30G U45A A64C | < 1e-05 | 7e-05 ± 1.7e-05 | – | – | –
A15G U30A G41A G51U G62A | < 1e-05 | – | < 1e-05 | – | –
G41U U54A | 2.71e-05 ± 1.1e-05 | 0.000144 ± 1.7e-05 | 0.000426 ± 7.7e-05 | 0.000104 ± 1.6e-05 | 0.000174 ± 2.6e-05
G37C U56C | < 1e-05 | < 1e-05 | – | – | –
U49G G59C | < 1e-05 | < 1e-05 | – | < 1e-05 | –
G43C A64G | < 1e-05 | < 1e-05 | < 1e-05 | < 1e-05 | < 1e-05
A12C G38A | < 1e-05 | – | – | < 1e-05 | –
A15U G29U C71G | 6.19e-05 ± 2.4e-05 | 0.000144 ± 2.7e-05 | – | – | –
A12U A15C U55A | 0.000587 ± 0.00012 | 0.012 ± 0.0027 | – | – | –
A36U C50G | 6.51e-05 ± 1.4e-05 | – | 0.000455 ± 0.00018 | 8.01e-05 ± 1.4e-05 | 2.94e-05 ± 1.3e-05
A6U A36U | < 1e-05 | < 1e-05 | < 1e-05 | < 1e-05 | < 1e-05
A6U A33U G38U | < 1e-05 | – | – | < 1e-05 | < 1e-05
G32C G63A | < 1e-05 | – | < 1e-05 | < 1e-05 | < 1e-05
A52C G60C | < 1e-05 | < 1e-05 | < 1e-05 | < 1e-05 | < 1e-05

Variant | self-cleavage kobs at 40 uM GlcN6P [1] [s⁻¹] | self-cleavage kobs at 10000 uM GlcN6P [2] [s⁻¹] | self-cleavage kobs at 2500 uM GlcN6P [3] [s⁻¹] | self-cleavage kobs at 160 uM GlcN6P [4] [s⁻¹] | self-cleavage kobs at 640 uM GlcN6P [5] [s⁻¹]
U55C G63A | < 1e-05 | < 1e-05 | < 1e-05 | < 1e-05 | –
C10U A33C | < 1e-05 | – | < 1e-05 | < 1e-05 | < 1e-05
A6C G51C | < 1e-05 | < 1e-05 | < 1e-05 | < 1e-05 | < 1e-05
U56C C61U C71U | < 1e-05 | – | – | – | –
A36G G51A | < 1e-05 | – | – | < 1e-05 | < 1e-05
A6U G32C G41U | < 1e-05 | – | – | – | –
A12G A36U C50G C70U C71U | 0.000102 ± 4.6e-05 | 5.91e-05 ± 1.9e-05 | – | – | –
G9A C10G G32U A48G | < 1e-05 | – | – | – | –
G44A G59U C71A | < 1e-05 | < 1e-05 | < 1e-05 | < 1e-05 | < 1e-05
A6C G44U C68G | < 1e-05 | < 1e-05 | – | – | < 1e-05
C16U A53U | 0.00056 ± 5.9e-05 | 0.0301 ± 0.0055 | 0.00594 ± 0.0012 | 0.000815 ± 0.00015 | 0.00552 ± 0.00076
A15C G38C A52G | < 1e-05 | – | < 1e-05 | – | –
C8A G62A | < 1e-05 | < 1e-05 | – | < 1e-05 | < 1e-05
A33U C58U C71A | < 1e-05 | – | < 1e-05 | – | < 1e-05
A6G G35C | < 1e-05 | < 1e-05 | < 1e-05 | < 1e-05 | < 1e-05
A12U C16U | 0.00238 ± 0.0003 | 0.0879 ± 0.035 | 0.076 ± 0.027 | 0.00439 ± 0.00083 | 0.0232 ± 0.0037
A48C G59A | < 1e-05 | < 1e-05 | < 1e-05 | < 1e-05 | < 1e-05
U56C C61U C70A C71U | < 1e-05 | – | < 1e-05 | – | –
C8U C34U | < 1e-05 | < 1e-05 | – | – | < 1e-05
C16U A36U A64G | < 1e-05 | – | – | – | –
A6C A52G A53G | < 1e-05 | – | – | – | –
C8G U31A U57A | < 1e-05 | < 1e-05 | < 1e-05 | – | –
C34G C50G C68A C70U | 8.07e-05 ± 2.3e-05 | 5.45e-05 ± 1.1e-05 | 0.000366 ± 0.00013 | – | –

Variant | self-cleavage kobs at 40 uM GlcN6P [1] [s⁻¹] | self-cleavage kobs at 10000 uM GlcN6P [2] [s⁻¹] | self-cleavage kobs at 2500 uM GlcN6P [3] [s⁻¹] | self-cleavage kobs at 160 uM GlcN6P [4] [s⁻¹] | self-cleavage kobs at 640 uM GlcN6P [5] [s⁻¹]
A33G U54G U65G | < 1e-05 | < 1e-05 | – | – | –
U31C A39U C68A | < 1e-05 | – | – | – | < 1e-05
G40U C61A G66A C70U | < 1e-05 | < 1e-05 | – | – | –
C10U A33U G35A | < 1e-05 | < 1e-05 | – | – | –
U49G U54G | 3.67e-05 ± 1.4e-05 | 0.000838 ± 0.00014 | – | – | –
U31A U45A G62U C68A | < 1e-05 | – | – | – | –
U56C G60U C68U | < 1e-05 | – | – | – | –
G51C G66U | < 1e-05 | < 1e-05 | < 1e-05 | – | < 1e-05
G35A U65C | < 1e-05 | < 1e-05 | < 1e-05 | < 1e-05 | < 1e-05
C16U A53C U54A | 0.000103 ± 2.4e-05 | 0.00236 ± 0.00047 | – | – | –
C8A U30A | < 1e-05 | < 1e-05 | < 1e-05 | < 1e-05 | –
G13C A52U | < 1e-05 | < 1e-05 | – | < 1e-05 | < 1e-05
A6C G13U C34G G60C | < 1e-05 | – | – | – | –
G40A U54G | 0.00036 ± 6.8e-05 | 0.00643 ± 0.0015 | 0.00184 ± 0.00065 | – | 0.0015 ± 0.00038
C8G G29U C71G | < 1e-05 | – | – | – | –
G7C U45G | < 1e-05 | < 1e-05 | < 1e-05 | < 1e-05 | < 1e-05
A6C U31C C68G | < 1e-05 | – | – | – | –
A14U G43A U55A C61A | < 1e-05 | < 1e-05 | – | – | –
A39G C61U | < 1e-05 | 3.27e-05 ± 1.1e-05 | – | – | –
G9C A15U | < 1e-05 | < 1e-05 | < 1e-05 | < 1e-05 | < 1e-05
A73U | 0.00108 ± 0.00026 | 0.0245 ± 0.0093 | 0.00477 ± 0.0019 | – | –
G35U A42U | < 1e-05 | – | < 1e-05 | < 1e-05 | < 1e-05
U31C G41U U45G C70G | 3.43e-05 ± 1.6e-05 | 0.000585 ± 0.00013 | – | – | –

Variant | self-cleavage kobs at 40 uM GlcN6P [1] [s⁻¹] | self-cleavage kobs at 10000 uM GlcN6P [2] [s⁻¹] | self-cleavage kobs at 2500 uM GlcN6P [3] [s⁻¹] | self-cleavage kobs at 160 uM GlcN6P [4] [s⁻¹] | self-cleavage kobs at 640 uM GlcN6P [5] [s⁻¹]
G7A C8A A42C U69A | < 1e-05 | < 1e-05 | – | – | –
C61A G62C | < 1e-05 | < 1e-05 | – | < 1e-05 | < 1e-05
G59U G60C | < 1e-05 | < 1e-05 | – | – | < 1e-05
G38U G40C G60A | < 1e-05 | – | – | – | –
G37A G51A A53C | < 1e-05 | < 1e-05 | – | – | –
C8G A14C | < 1e-05 | < 1e-05 | < 1e-05 | < 1e-05 | < 1e-05
C10U U47A G62U A64U U69A | < 1e-05 | – | – | – | –
G43A C61U C71A | < 1e-05 | – | – | – | –
G32C U46C | < 1e-05 | – | – | – | –
G7U A14C U56G | < 1e-05 | < 1e-05 | < 1e-05 | < 1e-05 | < 1e-05
C11G A14G A39U | < 1e-05 | – | – | – | –
C11A G29U G32U G44A | < 1e-05 | – | – | – | –
A42G C67A | 0.000813 ± 0.00013 | 0.0213 ± 0.0053 | 0.00552 ± 0.0024 | 0.00197 ± 0.00067 | 0.008 ± 0.0032
G40A C71A | 0.00036 ± 4.6e-05 | 0.0185 ± 0.0049 | 0.00849 ± 0.0017 | 0.000678 ± 0.00011 | 0.00251 ± 0.00036
C16G U56A C71U | 0.000174 ± 5.5e-05 | – | – | – | –
C58G G59U | < 1e-05 | < 1e-05 | < 1e-05 | < 1e-05 | < 1e-05
A12G G40U U54G | < 1e-05 | 0.000231 ± 6e-05 | – | – | –
A36U C61G A64C | < 1e-05 | – | – | – | –
G41U G51U A53G | < 1e-05 | < 1e-05 | – | – | –
A33U A48C | < 1e-05 | < 1e-05 | < 1e-05 | < 1e-05 | < 1e-05
